Experimental findings from publication PMC9870916, “The mitochondrial inhibitor IF1 binds to the ATP synthase OSCP subunit and protects cancer cells from apoptosis” (Cell Death & Disease, 2023) are described below.

The target in this assay is T1, OSCP-NT (R6-G114) (human, UniProt P48047 29-137).
T1 construct: Used unlabelled (added in excess) or 15N-labelled (observed); cleavage leaves no additional residues; also called N-terminal domain of OSCP; source: E. coli BL21(DE3), purified (Ni-HisTrap, Ulp1 cleavage, cation exchange, Superdex 75); not shown: His6-SUMO, N-terminal, cleaved
T1 sequence (looked up): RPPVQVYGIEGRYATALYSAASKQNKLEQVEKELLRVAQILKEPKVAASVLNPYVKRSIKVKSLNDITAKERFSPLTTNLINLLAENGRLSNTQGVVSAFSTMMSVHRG
Description: NMR titration; 1H-15N SOFAST-HMQC of 15N-labelled IF1-NT without and with 15-fold molar excess of unlabelled OSCP-NT or OSCP-CT; for OSCP-NT: 30 μM IF1-NT, 450 μM OSCP-NT, 50 mM phosphate, 300 mM NaCl, pH 7.0, 7 °C. As to conditions: both partners purified.

B1: IF1-NT (G1-E40) (domain or fragment, human, UniProt Q9UII2 26-65, looked up)
chain: GSDQSENVDRGAGSIREAGGAFGKREQAEEERYFRAQSRE
notes: Used 15N-labelled (observed) or unlabelled (added in excess); cleavage leaves no additional residues; also called IF1-1NT; N-terminal domain of IF1; source: E. coli BL21(DE3), purified (Ni-HisTrap, Ulp1 cleavage, second Ni-HisTrap, Superdex 75); not shown: His6-SUMO, N-terminal, cleaved
As for B1, the binding result was “binds”.
